The values that follow come from paper PMC5394233, “Structural and functional analysis of the human POT1-TPP1 telomeric complex” (Nature Communications, 2017).

Holding throughout (assay): fluorescence polarization; FP: 20 mM Hepes pH 7.5, 100 mM KCl, 2 mM MgCl2, 1 mM EDTA, 2 mM DTT, 1 mg/ml BSA, 5% glycerol, 75 nM polyT50 competitor, 2.5 nM probe, room temperature 30 min
In general terms: In fluorescence polarisation assays a small probe gives low polarisation when free and higher when bound to something large.

The target of one data set is flPOT1 WT;TPP1(87) (Homo sapiens;Homo sapiens, UniProt Q9NUX5;Q96AP0 1-634;1-458, |). Particulars: protein: recombinant;recombinant, tags: N-terminal His6-pMocr, TEV-cleaved;N-terminal His6-MBP, copies: 1;1, label: 5' 6-FAM, single strand.
A further data set addresses flPOT1 C591W;TPP1(87) (Homo sapiens;Homo sapiens, UniProt Q9NUX5;Q96AP0 1-634;1-458, C591W|). The conditions noted are these: protein: recombinant;recombinant, tags: N-terminal His6-pMocr, TEV-cleaved;N-terminal His6-MBP, copies: 1;1, label: 5' 6-FAM, single strand.
Another data set concerns the target T1, flPOT1 P446Q (Homo sapiens, UniProt Q9NUX5 1-634, P446Q).
T1 sequence: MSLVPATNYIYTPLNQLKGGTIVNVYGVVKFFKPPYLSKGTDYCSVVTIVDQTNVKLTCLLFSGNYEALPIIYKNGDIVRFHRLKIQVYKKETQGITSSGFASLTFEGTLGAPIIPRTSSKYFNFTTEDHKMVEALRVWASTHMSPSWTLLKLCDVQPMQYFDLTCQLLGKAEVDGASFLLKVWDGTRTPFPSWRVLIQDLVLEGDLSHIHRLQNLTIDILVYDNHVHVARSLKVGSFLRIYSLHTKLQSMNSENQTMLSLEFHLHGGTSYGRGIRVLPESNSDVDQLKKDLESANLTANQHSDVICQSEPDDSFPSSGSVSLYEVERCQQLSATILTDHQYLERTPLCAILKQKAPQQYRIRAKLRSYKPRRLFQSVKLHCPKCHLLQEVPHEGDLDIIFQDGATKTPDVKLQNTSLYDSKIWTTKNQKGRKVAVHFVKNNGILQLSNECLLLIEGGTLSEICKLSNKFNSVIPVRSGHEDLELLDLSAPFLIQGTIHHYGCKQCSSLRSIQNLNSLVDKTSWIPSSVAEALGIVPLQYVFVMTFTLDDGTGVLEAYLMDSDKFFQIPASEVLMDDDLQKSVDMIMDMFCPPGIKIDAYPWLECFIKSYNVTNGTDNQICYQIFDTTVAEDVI
Particulars: protein: recombinant; tags: N-terminal His6-pMocr, TEV-cleaved; label: 5' 6-FAM; single strand.

For another data set, the target named is flPOT1 P475L;TPP1(87) (Homo sapiens;Homo sapiens, UniProt Q9NUX5;Q96AP0 1-634;1-458, P475L|). Particulars: protein: recombinant;recombinant, tags: N-terminal His6-pMocr, TEV-cleaved;N-terminal His6-MBP, copies: 1;1, label: 5' 6-FAM, single strand.
The target in the next data set is T2, flPOT1 Q623H (Homo sapiens, UniProt Q9NUX5 1-634, Q623H).
T2 sequence: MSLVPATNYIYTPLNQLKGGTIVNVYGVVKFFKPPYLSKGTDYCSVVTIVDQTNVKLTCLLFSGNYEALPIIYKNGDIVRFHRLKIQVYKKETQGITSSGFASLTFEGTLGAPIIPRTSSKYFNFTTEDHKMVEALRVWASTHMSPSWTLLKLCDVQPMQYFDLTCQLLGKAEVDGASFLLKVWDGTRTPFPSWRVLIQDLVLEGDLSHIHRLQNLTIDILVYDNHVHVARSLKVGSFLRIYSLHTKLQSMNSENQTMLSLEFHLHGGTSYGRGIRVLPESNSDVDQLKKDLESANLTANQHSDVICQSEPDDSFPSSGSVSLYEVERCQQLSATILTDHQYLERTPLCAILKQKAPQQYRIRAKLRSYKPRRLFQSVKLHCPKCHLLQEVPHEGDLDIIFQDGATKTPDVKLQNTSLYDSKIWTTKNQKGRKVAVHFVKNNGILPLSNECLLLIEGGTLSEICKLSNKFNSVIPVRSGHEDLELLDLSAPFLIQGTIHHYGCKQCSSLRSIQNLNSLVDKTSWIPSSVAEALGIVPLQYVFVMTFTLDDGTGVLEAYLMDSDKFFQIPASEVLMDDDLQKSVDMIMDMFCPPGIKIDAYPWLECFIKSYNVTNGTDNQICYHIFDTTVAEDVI
Particulars: protein: recombinant; tags: N-terminal His6-pMocr, TEV-cleaved; label: 5' 6-FAM; single strand.

In the next data set the target is flPOT1 P446Q;TPP1(87) (Homo sapiens;Homo sapiens, UniProt Q9NUX5;Q96AP0 1-634;1-458, P446Q|). Particulars: protein: recombinant;recombinant, tags: N-terminal His6-pMocr, TEV-cleaved;N-terminal His6-MBP, copies: 1;1, label: 5' 6-FAM, single strand.
For a further data set, the target named is T3, POT1C (Homo sapiens, UniProt Q9NUX5 330-634).
T3 sequence: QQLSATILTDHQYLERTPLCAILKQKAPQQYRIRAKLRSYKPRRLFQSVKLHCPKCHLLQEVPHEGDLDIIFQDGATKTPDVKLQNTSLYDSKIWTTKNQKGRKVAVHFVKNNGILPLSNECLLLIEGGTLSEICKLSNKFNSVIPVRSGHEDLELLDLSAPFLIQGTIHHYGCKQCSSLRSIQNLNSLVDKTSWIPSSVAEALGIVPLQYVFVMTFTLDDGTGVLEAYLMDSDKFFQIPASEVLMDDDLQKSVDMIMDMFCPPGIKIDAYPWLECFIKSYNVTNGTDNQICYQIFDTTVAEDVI
Particulars: protein: recombinant; tags: N-terminal His6-pMocr, TEV-cleaved; label: 5' 6-FAM; single strand.

Sequence of flPOT1 C591W;TPP1(87) (Q9NUX5 whole entry C591W, chain 1 of 2): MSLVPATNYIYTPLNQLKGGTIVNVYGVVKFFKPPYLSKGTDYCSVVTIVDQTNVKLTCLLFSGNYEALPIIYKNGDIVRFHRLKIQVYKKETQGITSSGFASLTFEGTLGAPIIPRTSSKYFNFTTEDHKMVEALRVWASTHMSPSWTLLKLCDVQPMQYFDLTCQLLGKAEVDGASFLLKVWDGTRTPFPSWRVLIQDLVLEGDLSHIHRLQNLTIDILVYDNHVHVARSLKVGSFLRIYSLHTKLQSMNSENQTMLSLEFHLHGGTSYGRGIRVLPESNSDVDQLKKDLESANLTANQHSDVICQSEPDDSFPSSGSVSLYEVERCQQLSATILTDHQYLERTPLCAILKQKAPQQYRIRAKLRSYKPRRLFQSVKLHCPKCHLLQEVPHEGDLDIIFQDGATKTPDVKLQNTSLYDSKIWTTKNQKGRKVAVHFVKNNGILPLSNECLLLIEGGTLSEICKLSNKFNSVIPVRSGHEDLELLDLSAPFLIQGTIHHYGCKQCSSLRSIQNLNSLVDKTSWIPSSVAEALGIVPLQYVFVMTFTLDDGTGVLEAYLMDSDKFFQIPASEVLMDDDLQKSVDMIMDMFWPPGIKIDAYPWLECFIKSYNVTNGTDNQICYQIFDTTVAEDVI
Sequence of flPOT1 C591W;TPP1(87) (Q96AP0 whole entry, chain 2 of 2): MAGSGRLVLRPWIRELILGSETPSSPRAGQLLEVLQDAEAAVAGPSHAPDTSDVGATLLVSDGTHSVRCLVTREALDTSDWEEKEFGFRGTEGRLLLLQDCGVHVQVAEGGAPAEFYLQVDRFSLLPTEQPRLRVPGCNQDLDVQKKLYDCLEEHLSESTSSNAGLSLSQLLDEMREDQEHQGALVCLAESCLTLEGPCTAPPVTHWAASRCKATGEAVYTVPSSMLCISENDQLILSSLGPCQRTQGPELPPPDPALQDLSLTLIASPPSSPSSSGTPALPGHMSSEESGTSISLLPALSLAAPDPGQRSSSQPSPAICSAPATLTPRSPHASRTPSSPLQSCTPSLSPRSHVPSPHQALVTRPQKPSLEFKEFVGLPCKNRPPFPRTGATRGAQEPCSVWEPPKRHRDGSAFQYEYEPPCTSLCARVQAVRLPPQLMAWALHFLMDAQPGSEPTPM
Sequence of flPOT1 WT;TPP1(87) (Q9NUX5 whole entry, chain 1 of 2): as the sequence (Q9NUX5 whole entry C591W, chain 1 of 2) above, with W591C counted along it
Sequence of flPOT1 WT;TPP1(87) (Q96AP0 whole entry, chain 2 of 2): as the sequence (Q96AP0 whole entry, chain 2 of 2) above
Sequence of flPOT1 P475L;TPP1(87) (Q9NUX5 whole entry P475L, chain 1 of 2): as the sequence (Q9NUX5 whole entry C591W, chain 1 of 2) above, with P475L, W591C counted along it
Sequence of flPOT1 P475L;TPP1(87) (Q96AP0 whole entry, chain 2 of 2): as the sequence (Q96AP0 whole entry, chain 2 of 2) above
Sequence of flPOT1 P446Q;TPP1(87) (Q96AP0 whole entry, chain 2 of 2, one chain of several): as the sequence (Q96AP0 whole entry, chain 2 of 2) above

With TTAGGGTTAGGGTTAGGG (ssDNA) [telomeric 18mer (TTAGGG)3], the Kd with flPOT1 WT;TPP1(87) is around 5.8 nM; with flPOT1 C591W;TPP1(87), 15.6 ± 2.5 nM; with flPOT1 P446Q, around 20 nM; with flPOT1 P475L;TPP1(87), 10.7 ± 1.4 nM; with flPOT1 Q623H, around 20 nM; in the data set with flPOT1 P446Q;TPP1(87) it was 10.3 ± 1 nM. Also, the binding result with POT1C is on record as “no binding”.

For orientation: Kd means the free concentration of one partner at which half of the binding sites on the other are occupied at equilibrium, for simple one-to-one binding.
